From article PMC8207216
pKd: −log10 of the molar value.

Target: APE1 wild type (human) (UniProt P27695)
Assay: EMSA
Settings: 1 mM EDTA (no catalysis); apparent KD; N at position 16 of strand 1 = abasic ribonucleotide analog (tetrahydrofuran with 2'-OH); EMSA: 2 nM DNA, 0-20 nM APE1, 50 mM Tris pH 8, 1 mM EDTA, 0.2 mg/ml BSA, 1 mM DTT, 5% sucrose, 30 min on ice, 10% native gel

UniProt P27695, sequence (P27695 whole entry): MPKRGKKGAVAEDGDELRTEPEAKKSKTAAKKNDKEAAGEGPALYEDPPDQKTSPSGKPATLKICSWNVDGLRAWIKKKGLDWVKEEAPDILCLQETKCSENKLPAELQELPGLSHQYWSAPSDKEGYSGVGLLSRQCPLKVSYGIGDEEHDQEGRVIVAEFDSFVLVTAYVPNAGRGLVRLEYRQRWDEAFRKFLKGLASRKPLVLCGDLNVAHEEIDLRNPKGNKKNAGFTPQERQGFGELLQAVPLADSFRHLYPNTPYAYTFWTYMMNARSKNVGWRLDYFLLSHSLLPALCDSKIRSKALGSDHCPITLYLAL

With “CGTTCGCTGATGCGCNCGACGGATCCGCAT / ATGCGGATCCGTCGAGCGCATCAGCGAACG [30-mer rAP DNA]” as the sequence, how does the pKd read?
The pKd was 8.54.
